# From paper PMC6436931, “Activation of the Endonuclease that Defines mRNA 3′ Ends Requires Incorporation into an 8-Subunit Core Cleavage and Polyadenylation Factor Complex” (Molecular Cell, 2019)
# T1: Rna14;Rna15 (Saccharomyces cerevisiae;Saccharomyces …, UniProt P25298;P25299 1-677;1-296, |)
# T1 sequence 1: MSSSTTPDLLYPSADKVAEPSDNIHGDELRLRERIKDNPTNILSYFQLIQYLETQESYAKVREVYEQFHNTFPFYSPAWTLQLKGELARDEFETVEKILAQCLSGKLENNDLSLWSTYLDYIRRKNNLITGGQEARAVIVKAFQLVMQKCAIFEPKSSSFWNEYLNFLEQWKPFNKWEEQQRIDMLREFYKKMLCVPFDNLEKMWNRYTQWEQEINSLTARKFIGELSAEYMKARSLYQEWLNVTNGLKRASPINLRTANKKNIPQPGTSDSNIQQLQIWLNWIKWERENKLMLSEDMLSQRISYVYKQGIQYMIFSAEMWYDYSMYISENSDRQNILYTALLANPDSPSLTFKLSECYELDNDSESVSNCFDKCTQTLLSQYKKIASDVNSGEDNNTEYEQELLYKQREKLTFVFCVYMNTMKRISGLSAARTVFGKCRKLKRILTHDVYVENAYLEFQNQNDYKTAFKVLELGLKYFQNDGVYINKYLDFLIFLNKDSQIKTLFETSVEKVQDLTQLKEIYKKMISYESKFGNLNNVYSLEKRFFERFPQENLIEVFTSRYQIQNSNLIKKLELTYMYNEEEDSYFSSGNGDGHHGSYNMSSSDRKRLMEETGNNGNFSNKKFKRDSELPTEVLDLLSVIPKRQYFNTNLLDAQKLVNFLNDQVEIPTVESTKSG
# T1 sequence 2: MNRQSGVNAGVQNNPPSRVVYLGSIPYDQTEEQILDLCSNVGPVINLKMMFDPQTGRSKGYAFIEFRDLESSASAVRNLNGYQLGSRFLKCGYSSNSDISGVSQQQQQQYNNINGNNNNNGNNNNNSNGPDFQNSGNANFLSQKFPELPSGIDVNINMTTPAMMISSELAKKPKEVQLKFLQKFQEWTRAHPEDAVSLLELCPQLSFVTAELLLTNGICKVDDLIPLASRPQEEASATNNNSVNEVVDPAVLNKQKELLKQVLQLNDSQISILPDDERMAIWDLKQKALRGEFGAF
# Biological target: T1, Rna14;Rna15
# Experiment: EMSA; EMSA: 50 nM RNA, 0.25-4.0 uM protein, protein diluted in 10 mM HEPES pH 7.9, 150 mM NaCl, 0.5 mM Mg(OAc)2, plus 1x loading dye (orange G, glycerol, EDTA); 30 min on ice; native 6% acrylamide/TBE PAGE
# Settings: protein: recombinant;recombinant; tags: 6H;; chain copies: 2;2; label: 5'-FAM
row,Binder,binding result
1,GGGGGGGGGGGGGGG (ssRNA) [G15],binds
2,CGUUAUUUAUAUUUCAAAUUUUUCU (ssRNA) [CYC1f EMSA probe],binds
3,UUUUUUUUUUUUUUU (ssRNA) [U15],binds
4,AAAAAAAAAAAAAAA (ssRNA) [A15],no binding
5,AAGAACGUUAUUUAUAUUUCAAAUUUUUCUUUUUU (ssRNA) [CYC1d EMSA probe],binds
6,CCCCCCCCCCCCCCC (ssRNA) [C15],no binding

# Biological target: Pcf11;Clp1 (Saccharomyces cerevisiae;Saccharomyces …, UniProt P39081;Q08685 1-626;1-445, |)
# Experiment: as above
# Settings: protein: recombinant;recombinant; tags: 6H;; copies: 1;1; label: 5'-FAM
# Chain of Pcf11;Clp1 (P39081 whole entry, chain 1 of 2): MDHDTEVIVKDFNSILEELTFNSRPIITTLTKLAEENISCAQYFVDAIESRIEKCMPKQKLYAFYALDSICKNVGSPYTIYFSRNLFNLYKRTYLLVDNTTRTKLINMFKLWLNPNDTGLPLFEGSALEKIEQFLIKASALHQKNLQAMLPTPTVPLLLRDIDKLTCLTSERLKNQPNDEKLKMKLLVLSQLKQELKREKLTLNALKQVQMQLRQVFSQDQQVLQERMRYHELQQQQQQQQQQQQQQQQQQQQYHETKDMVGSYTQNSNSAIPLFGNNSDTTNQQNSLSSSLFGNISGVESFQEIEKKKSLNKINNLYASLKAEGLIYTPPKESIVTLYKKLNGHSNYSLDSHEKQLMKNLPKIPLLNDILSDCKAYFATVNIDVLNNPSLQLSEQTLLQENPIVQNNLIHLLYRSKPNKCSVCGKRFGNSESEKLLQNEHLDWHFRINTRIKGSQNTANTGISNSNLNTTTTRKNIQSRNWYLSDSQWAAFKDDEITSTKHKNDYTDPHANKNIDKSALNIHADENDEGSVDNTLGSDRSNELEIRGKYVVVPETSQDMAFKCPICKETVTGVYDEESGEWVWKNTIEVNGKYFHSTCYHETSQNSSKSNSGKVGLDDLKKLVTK
# Chain of Pcf11;Clp1 (Q08685 whole entry, chain 2 of 2): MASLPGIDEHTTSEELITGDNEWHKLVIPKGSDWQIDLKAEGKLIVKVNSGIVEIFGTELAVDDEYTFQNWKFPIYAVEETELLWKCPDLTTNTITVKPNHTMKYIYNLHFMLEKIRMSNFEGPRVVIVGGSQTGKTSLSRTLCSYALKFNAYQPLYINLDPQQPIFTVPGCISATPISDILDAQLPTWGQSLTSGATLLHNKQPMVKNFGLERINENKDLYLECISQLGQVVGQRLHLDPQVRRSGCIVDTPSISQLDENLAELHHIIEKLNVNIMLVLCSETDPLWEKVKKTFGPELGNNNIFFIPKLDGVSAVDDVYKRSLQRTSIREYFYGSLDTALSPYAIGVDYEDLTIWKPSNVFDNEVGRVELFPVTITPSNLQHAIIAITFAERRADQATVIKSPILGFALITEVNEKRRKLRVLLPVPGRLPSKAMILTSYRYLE
row,Binder,binding result
1,GGGGGGGGGGGGGGG (ssRNA) [G15],no binding
2,CGUUAUUUAUAUUUCAAAUUUUUCU (ssRNA) [CYC1f EMSA probe],binds
3,UUUUUUUUUUUUUUU (ssRNA) [U15],no binding
4,AAAAAAAAAAAAAAA (ssRNA) [A15],no binding
5,AAGAACGUUAUUUAUAUUUCAAAUUUUUCUUUUUU (ssRNA) [CYC1d EMSA probe],binds
6,CCCCCCCCCCCCCCC (ssRNA) [C15],no binding

# Biological target: Rna14;Rna15;Pcf11;Clp1 (Saccharomyces cerevisiae;Saccharomyces …, UniProt P25298;P25299;P39081;Q08685 1-677;1-296;1-626;1-445, |||)
# Experiment: EMSA; CF IA; EMSA: 50 nM RNA, 0.25-4.0 uM protein, protein diluted in 10 mM HEPES pH 7.9, 150 mM NaCl, 0.5 mM Mg(OAc)2, plus 1x loading dye (orange G, glycerol, EDTA); 30 min on ice; native 6% acrylamide/TBE PAGE
# Settings: protein: recombinant;recombinant;recombinant;recombinant; tags: 6H;;6H;; chain copies: 2;2;1;1; label: 5'-FAM
# Chain of Rna14;Rna15;Pcf11;Clp1 (P39081 whole entry, chain 3 of 4, one chain of several): as the sequence (P39081 whole entry, chain 1 of 2) above
# Chain of Rna14;Rna15;Pcf11;Clp1 (Q08685 whole entry, chain 4 of 4, one chain of several): as the sequence (Q08685 whole entry, chain 2 of 2) above
row,Binder,binding result
1,GGGGGGGGGGGGGGG (ssRNA) [G15],binds
2,CGUUAUUUAUAUUUCAAAUUUUUCU (ssRNA) [CYC1f EMSA probe],binds
3,UUUUUUUUUUUUUUU (ssRNA) [U15],binds
4,AAAAAAAAAAAAAAA (ssRNA) [A15],no binding
5,AAGAACGUUAUUUAUAUUUCAAAUUUUUCUUUUUU (ssRNA) [CYC1d EMSA probe],binds
6,CCCCCCCCCCCCCCC (ssRNA) [C15],no binding

# Biological target: Cft1;Pfs2;Yth1;Fip1;Pap1;Cft2;Ysh1;Mpe1 (Saccharomyces cerevisiae;Saccharomyces …, UniProt Q06632;P42841;Q06102;P45976;P29468;Q12102;Q06224;P35728 …, |||||||)
# Experiment: EMSA; CPFcore; EMSA: 50 nM RNA, 0.25-4.0 uM protein, protein diluted in 10 mM HEPES pH 7.9, 150 mM NaCl, 0.5 mM Mg(OAc)2, plus 1x loading dye (orange G, glycerol, EDTA); 30 min on ice; native 6% acrylamide/TBE PAGE
# Settings: tags: ;3C-SII;3C-8H, untagged in CPFpol+Cft2;;SII (Pap1-SII) when alone, untagged in CPFpol and CPFcore;SII (Cft2-SII) when alone, untagged in CPFpol+Cft2 and CPFcore;;3C-SII (C-terminal) in Ysh1-Mpe1 complexes, copies: 1;2;1;1;1;1;1;1, label: 5'-FAM
row,Binder,binding result
1,GGGGGGGGGGGGGGG (ssRNA) [G15],binds
2,CGUUAUUUAUAUUUCAAAUUUUUCU (ssRNA) [CYC1f EMSA probe],binds
3,UUUUUUUUUUUUUUU (ssRNA) [U15],no binding
4,AAAAAAAAAAAAAAA (ssRNA) [A15],binds
5,AAGAACGUUAUUUAUAUUUCAAAUUUUUCUUUUUU (ssRNA) [CYC1d EMSA probe],binds
6,CCCCCCCCCCCCCCC (ssRNA) [C15],no binding
